The record followed here is patent US20140113288.

syncytin-1-HA, Q9UQF0, sequence (Q9UQF0 21-538): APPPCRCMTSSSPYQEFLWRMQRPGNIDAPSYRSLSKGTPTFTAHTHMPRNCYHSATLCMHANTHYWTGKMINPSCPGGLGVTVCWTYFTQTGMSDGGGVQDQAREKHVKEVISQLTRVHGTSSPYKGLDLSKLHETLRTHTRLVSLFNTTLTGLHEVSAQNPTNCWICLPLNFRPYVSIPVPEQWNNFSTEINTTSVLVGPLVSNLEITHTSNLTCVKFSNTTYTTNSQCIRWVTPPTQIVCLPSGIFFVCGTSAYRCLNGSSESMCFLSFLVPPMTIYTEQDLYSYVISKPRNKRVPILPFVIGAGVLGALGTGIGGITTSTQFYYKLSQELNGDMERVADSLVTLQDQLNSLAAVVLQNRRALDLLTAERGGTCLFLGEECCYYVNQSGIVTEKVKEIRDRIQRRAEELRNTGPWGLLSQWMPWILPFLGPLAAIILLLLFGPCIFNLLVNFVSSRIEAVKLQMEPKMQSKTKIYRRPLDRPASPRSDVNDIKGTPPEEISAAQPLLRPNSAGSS

B1: HtrA4-FLAG (protein)
chain: EKLHTQPSCPAVCQPTRCPALPTCALGTTPVFDLCRCCRVCPAAEREVCGGAQGQPCAPGLQCLQPLRPGFPSTCGCPTLGGAVCGSDRRTYPSMCALRAENRAARRLGKVPAVPVQWGNCGDTGTRSAGPLRRNYNFIAAVVEKVAPSVVHVQLWGRLLHGSRLVPVYSGSGFIVSEDGLIITNAHVVRNQQWIEVVLQNGARYEAVVKDIDLKLDLAVIKIESNAELPVLMLGRSSDLRAGEFVVALGSPFSLQNTATAGIVSTKQRGGKELGMKDSDMDYVQIDATINYGNSGGPLVNLDGDVIGVNSLRVTDGISFAIPSDRVRQFLAEYHEHQMKGKAFSNKKYLGLQMLSLTVPLSEELKMHYPDFPDVSSGVYVCKVVEGTAAQSSGLRDHDVIVNINGKPITTTTDVVKALDSDSLSMAVLRGKDNLLLTVIPETIN
For the protein B1, in the data set with fibronectin, the “cleavage of fibronectin (immunoblotting with anti-fibronectin Ab)” value is recorded as “cleavage of fibronectin by HtrA4-FLAG, but not HtrA4mt-FLAG, was observed in a dose-dependent manner”. For the same protein, the “protein level of surface syncytin-1-HA TM subunit (biotinylation, streptavidin pull-down, HA mAb)” value in the data set with syncytin-1-HA, Q9UQF0 is recorded as “the protein level of the TM subunit of syncytin-1-HA decreased in the presence of HtrA4-FLAG, but not HtrA4mt-FLAG”.

B2: HtrA4mt-FLAG (protein)
chain: EKLHTQPSCPAVCQPTRCPALPTCALGTTPVFDLCRCCRVCPAAEREVCGGAQGQPCAPGLQCLQPLRPGFPSTCGCPTLGGAVCGSDRRTYPSMCALRAENRAARRLGKVPAVPVQWGNCGDTGTRSAGPLRRNYNFIAAVVEKVAPSVVHVQLWGRLLHGSRLVPVYSGSGFIVSEDGLIITNAHVVRNQQWIEVVLQNGARYEAVVKDIDLKLDLAVIKIESNAELPVLMLGRSSDLRAGEFVVALGSPFSLQNTATAGIVSTKQRGGKELGMKDSDMDYVQIDATINYGNAGGPLVNLDGDVIGVNSLRVTDGISFAIPSDRVRQFLAEYHEHQMKGKAFSNKKYLGLQMLSLTVPLSEELKMHYPDFPDVSSGVYVCKVVEGTAAQSSGLRDHDVIVNINGKPITTTTDVVKALDSDSLSMAVLRGKDNLLLTVIPETIN
On to B2, for which, in the data set with fibronectin, the “cleavage of fibronectin (immunoblotting with anti-fibronectin Ab)” value is “cleavage of fibronectin by HtrA4-FLAG, but not HtrA4mt-FLAG, was observed in a dose-dependent manner”. Further, the “protein level of surface syncytin-1-HA TM subunit (biotinylation, streptavidin pull-down, HA mAb)” value with syncytin-1-HA, Q9UQF0 is reported as “the protein level of the TM subunit of syncytin-1-HA decreased in the presence of HtrA4-FLAG, but not HtrA4mt-FLAG”.
